Measured values as given in the DeepSol protein solubility set.

Test: soluble on expression in E. coli; label from the status in PepcDB or PDB records

Sequence | soluble on expression in E. coli
MSLGKTLLVDSKGLILDGKHIIPVMGEIHYSRVPESEWRREIRKMKAGGINIISTYIFWIHHEPEEGKWNWSGNHNLRRFVRICAEENVMLVLRLGPFCHGEVYQGGIPSWVHEKAGQNPKYKIRARTPGFLEDCTELYNTIFAQVNGLLWKDGGPVVGVQIENESRGPWDYLEALKNIAVKAGFDVPFYTRTGWPALRGKEVFGQLLPLYGDYADGFWDRKLEDMPGSYADAFIMRDKRMSSAIATETFSKEELSEDSPSLSSKLSYPYFTCELGGGMMPAYHRRININGKELKPLVICKLGSGSNLPGYYMYHGGTNPYNPLHTMGETQSSPGTNHNDLPHMTYDFQAPLGEVGQVFETPFHEGRFIHQMLTDWGSELLQMNVDSLSRHYARRGAFEFYNDYVRIKNESGTSHVTFKDYRTEGATIDWTTVEPFCKVDGLIYFIEIRGKKPQISVDGKVYTCKLNKEGHHHHHH | not soluble
MNMLEKIQSQLEHLSKSERKVAEVILASPDNAIHSSIAALALEANVSEPTVNRFCRSMDTRGFPDFKLHLAQSLANGTPYVNRNVNEDDSVESYTGKIFESAMATLDHVRHSLD | not soluble
MRLISKPVLCNYYVTYRCNATCGFCDIWEKPSPYVTPEAVEQNMRDLKKLGVKVIDFTGGEPLLHREMDTLLRIAKKYGMITTLTTNALLYPKWAERLKGLIDMLHFSLDSPDKAEHDTLRGVACFDFVLESIEKAKALGERPDIIFTVFNHNIHLIKRMYEEICLPNNLILILNPSFEYNQVEVGTGLQKKELDILSYWAKQKNIYINEAFIQLRLDGGNHTADPVCKAASSTLVISPENKLVLPCYHLGTDSFQIENNLFDLYHSKEVRAIIAQEGKLDACEGCTINCYMQPSFAVEINKYWFKAMPSTLKYSREKGTWKQLFR | not soluble
MPAGFTHFRLVTRNNMKSLTTETALDILIAWLQDNIDCGSGIIFDNDEDKTDSAALLPCIEQAREDVRTLRHLQLLHQNR | soluble
MTTEKINLLDFDRKGLRTFFAEELGEKAFRAEQVMKWIYHFGCDDFDQMNNINKQLREKLKAKCEIRAPYVSEAQHSADGTIKWAMRVGDQDVETVYIPEDDRATLCVSSQVGCALECKFCSTAQQGFNRNLRVSEIIGQVWRAAREIGLEKETGRRPITNVVMMGMGEPLLNMKNLIPALEIMLDDLGFGLSKRRVTVSTSGVVSGLEQMIGQIDVALAISLHAPNDKLRSEIMPINDRWNIEAFLEVVRRYIASSNANRGKVTVEYVLLDHVNDGTEHAHELAELLKGTPCKINLIPFNPYPGSPYKKPSNSRIDRFQKTLMQYEHTVTIRKTRGDDIDAACGQLVGDVIDRTKRTKAKQFDGQAIPVKTL | not soluble
MKIAIPKERRPGEDRVAISPEVVKKLVGLGFEVIVEQGAGVGASITDDALTAAGATIASTAAQALSQADVVWKVQRPMTAEEGTDEVALIKEGAVLMCHLGALTNRPVVEALTKRKITAYAMELMPRISRANSMDILSSQSNLAGYRAVIDGAYEFARAFPMMMTAAGTVPPARVLVFGVGVAGLQAIATAKRLGAVVMATDVRAATKEQVESLGGKFITVDDEAMKTAETAGGYAKEMGEEFRKKQAEAVLKELVKTDIAITTALIPGKPAPVLITEEMVTKMKPGSVIIDLAVEAGGNCPLSEPGKIVVKHGVKIVGHTNVPSRVAADASPLFAKNLLNFLTPHVDKDTKTLVMKLEDETVSGTCVTRDGAIVHPALTGQGA | soluble
MTYDLSRLTQDLPHETSEPSPKSASTLSLPPGESDQNGNTSSHEGVTPPRRRCTISRSSSIDSISGETLISEYFSSDELDKLSTALSEVTF | not soluble
MGSDKIHHHHHHMLSGENKMLDIDKSTVDFLVTENMVQEVEKVLSHDVPLVHAIVEEMVKRDIDRIYFVACGSPLNAAQTAKHLADRFSDLQVYAISGWEFCDNTPYRLDDRCAVIGVSDYGKTEEVIKALELGRACGALTAAFTKRADSPITSAAEFSIDYQADCIWEIHLLLCYSVVLEMITRLAPNAEIGKIKNDLKQLPNALGHLVRTWEEKGRQLGELASQWPMIYTVAAGPLRPLGYKEGIVTLMEFTWTHGCVIESGEFRHGPLEIVEPGVPFLFLLGNDESRHTTERAINFVKQRTDNVIVIDYAEISQGLHPWLAPFLMFVPMEWLCYYLSIYKDHNPDERRYYGGLVEY | not soluble
YAYKSNTYFKLKKKNIKLNGNIIKKSCKLGIPVALQNSLIAFSLIVLQKVVNGYGATFTTAFTVVSRIETLVQQPFMSLGAAVSTYTGQNIGAGLKDRVRKGFN | not soluble
MTYKELATFLKVLSDSSRLEILDLLSCGELCACDLLAHFQFSQPTLSYHMKALVKTNLVTTRKIGNKHLYQLNHNIFESVINNLSKVHTSNQRCICHNLKTGEC | not soluble
MNKFKGNKVVLIGNGAVGSSYAFSLVNQSIVDELVIIDLDTEKVRGDVMDLKHATPYSPTTVRVKAGEYSDCHDADLVVICAGARQKPGETRLDLVSKNLKIFKSIVGEVMASKFDGIFLVATNPVDILAYATWKFSGLPKERVIGSGTILDSARFRLLLSEAFDVAPRSVDAQIIGEHGDTELPVWSHANIAGQPLKTLLEQRPEGKAQIEQIFVQTRDAAYDIIQAKGATYYGVAMGLARITEAIFRNEDAVLTVSALLEGEYEEEDVYIGVPAVINRNGIRNVVEIPLNDEEQSKFAHSAKTLKDIMAEAEELK | soluble
MAIFARETMDLIATASFPSIKKLSSGFWLDLFESTLTSGNELVLLPPTRYSYWSIMAVANPTPLKAPRRLDLVTKSLLAAPLLFHLVCQSNNPVREDVLDCWVWPFFCSGNTALMKSPKFWALLGVGSKVVLPWLCPLLGSRNAGKA | soluble
MSKFFINPEVLEKYSQKLAEHKSSVNHVRDLVAQADVSDESWGIVGLFVKQSYTEMLGDFKDLLKDMSDGLDSASDKMMSATRAYREIEEENRRILVEITRRINAAKIKNITS | not soluble
MIMNIFLIKEADLVEAAEIISASFKNYEVMRYLFNDSGNDHEAHITEFFLAFYQFGLANNWPCYGVRVNEQWVAVALGCNSSEQEIIKGSDDALTEFYKKISPQACCRIEQYDQQADAAHPSKAHFFIDSIGTHPDHQGKGYAKALILKFQELSKSDVHSTGVGLNTESDNNINFYQHLGYQVKAQQKIGSLTSWSLFRTDD | not soluble
AGTKLSLMPWFHGKITREQAERLLYPPETGLFLVRESTNYPGDYTLCVSSDGKVEHYRIMYHASKLSIDEEVYFENLMQLVEHYTSDADGLCTRLIKPKVMEGTVA | soluble
MGTKLPRKLEQKMQIVGEQIKLARLRRNLSIAQIAERATCSPLTVGRIEKGSPTVAIGIYARVLYALQLEDDLLHLAGADELGRRLQDLSLINRRRASKKG | not soluble
MNIAIIGGGIAGLATAHLLCDDHRVTLFEANDYLGGHTNTVDVSLDGTTLAVDTGFIVFNERTYPNFIRLLERLNVASRPSVMSFSVTSERNGLEYCATNLDTLFAQRRNFLNRPFWRMLREIVRFNREARELYDSHEMTLTLGDYLKNRGYSVTFVENFLVPMGAAIWSADPKRFAMFPAAAFVRFFTNHGILNVVDQPRWRVVAGGSREYVAPLARPFRDRVRLSTPVDRVRRFPDRVAVTTRGGETEYFDQVVLACHSDQALAMLTDPSDAERELLSAIPYQENDTVLHTDSRLLPGLPKARASWNCRIPRHERDGVFVTYWMNRLQSLATSTDFCVTLNGTEAIAPERIIRRITYHHPVYSPAAFEAQKRRDEISGTNRTWYCGAYWGYGFHEDGLNSALAVCRRFGRGLLEHHHHHH | not soluble
MNNSNENDVILAWWDWGHFITYYARRSPIAQGGPSVGVALYLLGKLNENWAINLGVDYVIVSYYDFLKFGAILSTANLSKRYNIRGYGLVVLPLRASTGALIFENRGYRAIVRHDKSWNAVIIYNGQMIYPRKLYVEHKEGVQEIKPPESNSNTYLYVNLNYGLEHHHHHH | not soluble
MNKALSVENLGFYYQAENFLFQQLNFDLNKGDILAVLGQNGCGKSTLLDLLLGIHRPIQGKIEVYQSIGFVPQFFSSPFAYSVLDIVLMGRSTHINTFAKPKSHDYQVAMQALDYLNLTHLAKREFTSLSGGQRQLILIARAIASECKLILLDEPTSALDLANQDIVLSLLIDLAQSQNMTVVFTTHQPNQVVAIANKTLLLNKQNFKFGETRNILTSENLTALFHLPMFEQQAQYKESFFTHFVPLYKTLLK | soluble
